The results in this text go back to article PMC9170038.

For this series, the target named is MS2 coat protein, dlFG mutant (Escherichia phage MS2, UniProt P03612, del68-81insG). The experiment in a line: 4 mM Mg2+; no ligand; RNA-MaP array; 100 mM Tris-HCl pH 7.5, 80 mM KCl, 4 mM MgCl2, 0.1 mg/mL BSA, 1 mM DTT, 0.01 mg/mL yeast tRNA, 0.01% Tween-20; protein 1.5 nM to 3 uM; 37 C (Table S3). Particulars: chain copies: 2; label: tethered by stalled RNA polymerase.

The Kd is the concentration at which binding is half-saturated. A high value points to lower affinity.

B1: Eterna 6146924 (Exclusion NG 1) (ssRNA)
RNA: GUGACGGAUGUAGGAUAUGCUGACCAAUGGUCAGCAGAAGGACAUGAGGAUCACCCAUGUCAUCCUUAUAAUAAAUACCGUCAC
On to B1, for which the affinity, expressed as Kd, was 13.7 nM.

B2: Eterna 7736465 (Same State - FMN A) (ssRNA)
RNA: UUUCUUUUCUUUUGCGAUCCUAUCCCUUAUAAGGAUAUCUAGAAAUAGAGAAGGUAUGCAGUGAUGUUGCUUGGGAUAGGAUCGC
Regarding B2, the Kd is greater than 3000 nM.

B3: Eterna 7730917 (Exclusion - Tryptophan A) (ssRNA)
RNA: AGACUGUCUUCGGACAGUCCGGACAGCCCGCGAGGACCGGUACGGCCGCCACUCGCGUGAGGAUCACCCAUGCGAGGCUGUCCGA
For the molecule B3, binding was put at a Kd of 34.7 nM.

B4: Eterna 7691377 (Same State - Tryptophan B) (ssRNA)
RNA: UAUCUAUGCUCGGCCGCCACUAGGACCGGGAGGUAACUAGUGAUGUUAGUAUCUUCGGCCGCCACUAGGACCGGGAGUGUAGAUA
In the case of B4, the Kd was greater than 3000 nM.

B5: Eterna 7730292 (Same State - Arginine B) (ssRNA)
RNA: UGUAUGGACUGAAGGAGCGGAAAAUAAACCUGAGGAUCACCCGGGUAAUAGGCGAAAGCCAUCCAGGUAGGUCGCAGUCCAUACU
Take B5: the Kd amounted to 279 nM.

B6: Eterna 6428572 (Exclusion NG 2) (ssRNA)
RNA: GUCUCCGCUCGAGGAUAUAGCUGCAUGUAGUGUCCUGAGGCACAUGAGGAUCACCCAUGUGUAGGCUAGAAGGCGACGGACACU
Consider B6, for which the Kd is 11 nM.

B7: Eterna 6095017 (Exclusion NG 3) (ssRNA)
RNA: AAGGACUGUAAUAAUGUAGAAAUACAUGAGGAUCACCCAUGUAAGGAUAUCGUCAGGAAUACUGACGAGAAGGUACAUCAGUCC
On to B7, for which the affinity, expressed as Kd, was 16.5 nM.

B8: Eterna 7673920 (Same State - Theophylline B) (ssRNA)
RNA: UGUAUGUGAUCUGAUACCAGCGUUGAUAACCUGAGGAUCACCCUGGUAAGGCGAAAGCCACGCCCUUGGCAGCAGAUCGCAUACU
Consider B8, for which the dissociation constant Kd is 193 nM.

B9: Eterna 6381991 (Exclusion NG 1) (ssRNA)
RNA: AUGCUUUAUGUAGGAUAUGCAUACGGUACGUAUGCAGAAGGACAUGAGGAUCACCCAUGUAAAUUAUUAUUACAUAUCAUACAU
Turning to B9, the equilibrium dissociation constant (Kd) amounted to 10.9 nM.

B10: Eterna 6055371 (Brourd's mod of Exclusion 4) (ssRNA)
RNA: GAUCGCCAUGUCAGGAUAUCUUGUAUACCCACGUUAGAGAAGGGACAUGAGGAUCACCCAUGUACCCUGGUUUU
Take B10: binding was characterised by a dissociation constant (Kd) of 15.4 nM.

B11: Eterna 7730095 (Same State - Theophylline B) (ssRNA)
RNA: UGUAUGUGAUCUGAUACCAGUCCAACUGGUAAACCAUGAGGAUCACCCAUGGAAAAUUGGGACCCUUGGCAGCAGAUCGCAUACU
B11 came in with a Kd of 310 nM.

B12: Eterna 7716400 (Same State - Theophylline B) (ssRNA)
RNA: AUUUGUUUAUGUGAUACCAGACUAAGCAGUGAUGUUGCUUUUAUUUUUGAAUUUUAAAUAGUCCCUUGGCAGCACUAUGUCUGUA
In turn, B12 gave a Kd greater than 3000 nM.

B13: Eterna 7758792 (Exclusion - Tryptophan B) (ssRNA)
RNA: UGAUACCAGACGGCCGCCACUCCCGUAAGUCAAAGACUUACGAAGAGGGUUUUUCAGUGAUGUUGGAGGACCGGGUCUGGUAUCU
In the case of B13, the Kd was greater than 3000 nM.

B14: Eterna 6095051 (Same State NG 3) (ssRNA)
RNA: UUAACAUGAGGAUCACCCAUGUAAAGAACGGUUAAUUAAAGUGAGGAUAUACAAAAUUUUAUAUUGUAGAAGGCACUGGGUACA
In turn, B14 had a Kd of 19.5 nM.

B15: Eterna 6441202 (Exclusion NG 1) (ssRNA)
RNA: ACAUUUUAUGCAGGAUAUUGACAUAGGAUUAAACAAGAAGGGCAUUACAUGAGGAUCACCCAUGUUUUAUUGGUAUAUAAGUUC
With B15, the Kd worked out at 15.5 nM.

B16: Eterna 9910 (Sensor v3, turn-off variant 1) (ssRNA)
RNA: GAUUAUGCAAGCUUUCGGGACAUGAGGAUCACCCAUGUUCGUCUUAUUGAUCUAGGUACGCUGACGUACCUAGAUCU
B16 registered an equilibrium dissociation constant (Kd) of 16.5 nM.

B17: Eterna 6429522 (Inverted Exclusion NG 3) (ssRNA)
RNA: GUGGAUAGACGCCCACGUGAGACAUGAGGAUCACCCAUGUACAGAAGGUGGAGCGUUAAUGGUGCCAAGGAUAUGUACAUAAGG
Turning to B17, the affinity, expressed as Kd, was 4.92 nM.

B18: Eterna 7739340 (Same State - Theophylline A) (ssRNA)
RNA: ACCAUCAAAGAUGGCCAGGACUCAACUGAUACCAGAGUGGAGACACUCCCUUGGCAGCAGGUGAGUGAUGUUCACGAGUCCUGGA
As for B18, the Kd was greater than 3000 nM.

B19: Eterna 7729933 (Exclusion - Tryptophan B) (ssRNA)
RNA: GGAUAGGACACGGCCGCCACUUGCUAGGAUACUAGCAACAUUUCCUCUCAUGAGGAUCACCCAUGAAGGACCGGGUGUCCUAUCG
In the case of B19, the dissociation constant (Kd) was determined as 20.8 nM.

B20: Eterna 7741440 (Same State - Theophylline A) (ssRNA)
RNA: GGAGUGAUGUUCCAUUUUUAAAUCUCCGAUACCAGUAUGGAAACAUACCCUUGGCAGCGGUAAACCGCAGAUUAGGAAACUAGUC
B20 displayed a Kd greater than 3000 nM.

B21: Eterna 1619 (Same State - Theophylline A) (ssRNA)
RNA: GUGUAAGUGAUGUUUGCACACACGUCGGAUACCAGAGACUUUAGCCUCCCUUGGCAGCCGCCGGCCAUAAGAGCAAGUCGAUUUA
Molecule B21 displayed a Kd greater than 3000 nM.

B22: Eterna 6433398 (Small Loop Exclusion NG 3) (ssRNA)
RNA: UGAUCGAGAGAUCUUAGAUUCUGGUAGGAUAUACAUUAUAAAAGCUUUACAUGAGGAUCACCCAUGUAGAAGGACUAGAGUCUA
As to B22, binding was characterised by a dissociation constant (Kd) of 6.84 nM.

B23: Eterna 6073973 (Exclusion 2) (ssRNA)
RNA: UAGAUGGGAGGAUAUACGUAUAUGCAGGUUCGUGUGGUGCUACAUGAGGAUCACCCAUGUAGAAGGCCCGUCUU
Regarding B23, the equilibrium dissociation constant (Kd) is 19.1 nM. This Kd is about 2.8-fold higher than that of the molecule before.

B24: Eterna 7734716 (Exclusion - FMN B) (ssRNA)
RNA: GGAUAGGACACAGGAUAUGGUAGUGAUGUUACCAAACUGGUUAAACAUGUCAGAAAACUGGCAUGACCAGAAGGGUGUCCUAUCG
On to B24, for which the equilibrium dissociation constant (Kd) is greater than 3000 nM.

B25: Eterna 1038 (Exclusion - FMN A) (ssRNA)
RNA: UCACCGCCUAGUGAUGUUACGCGACUCAGAAAGGAUAUAAUCAAUCUUAGAAGGUUCACACCGUAUGGAUAUUAUCUAUCUCGUU
B25 registered a dissociation constant (Kd) greater than 3000 nM.

B26: Eterna 6439566 (Inverted Small Loop Same State NG 1) (ssRNA)
RNA: GGACAUUUACAGAAGGGCAAGCUCGAAAGCGGAGAACGCGAACGAGCUUGCAGGAUAUGUUGAACAUGAGGAUCACCCAUGUCU
With B26, the affinity, expressed as Kd, was 8.1 nM.

B27: Eterna 7745160 (Same State - Arginine B) (ssRNA)
RNA: GUUAAGUCGCGAAGGAGCGCGAACUAACAACGCAGUGAUGUUGCGUUGUACGUAGUAUAAUCGCAGGUAGGUCGCGCGACAGGCC
B27: the equilibrium dissociation constant (Kd) is greater than 3000 nM.

B28: Eterna 7609491 (Same State - Tryptophan A) (ssRNA)
RNA: ACAUGAGGAUCACCCAUGUUUGUUGUUCCUCGAGGACCGGUACGGCCGCCACUCGAACGAGUGGCACGCGAGUGCGCACUCGCGU
In turn, B28 registered a Kd of 12.3 nM.

B29: Eterna 7675501 (Same State - Theophylline B) (ssRNA)
RNA: CCAUCGCUAUUCGAUACCAGUCAUAAAAUCUUUGGUUAAAUAAAGGAGUGAUGUUCCAAAGACCCUUGGCAGCGAAUAGUGAUGG
As for B29, the Kd is greater than 3000 nM.

B30: Eterna 7696080 (Exclusion - Tryptophan B) (ssRNA)
RNA: UGAUACCAGACGGCCGCCACUAGGACCGGGAGUGAUGUUCCCAAUUUAAAAUGCUCGGCCGCCACUAGGACCGGGUCUGGUAUCU
Consider B30, for which the dissociation constant Kd is greater than 3000 nM.

B31: Eterna 1225 (Exclusion - Tryptophan A) (ssRNA)
RNA: GGAGGCCAGGCCUGCGAAGUGAUGUUUUGACGAGGACCGGUACGGCCGCCACUCGAAUGUUCUAUCAUCGUACGAACUUCUGCGU
Turning to B31, the Kd was greater than 3000 nM.

B32: Eterna 7610184 (Exclusion - Tryptophan B) (ssRNA)
RNA: GGAGCUACGUCGGCCGCCACUAGCGGGUAUUGCGUGUACAUGAGGAUCACCCAUGUAAUACGGCCUAGGACCGGGACGUAGCUCC
With B32, binding was characterised by a dissociation constant (Kd) of 12 nM.

B33: Eterna 7722704 (Same State - FMN A) (ssRNA)
RNA: GGCAGUGAUGUUGCCUAAGCAACGCAUGCAGAGGAUAUUCGUUCGGGAAGAAGGCUGCAGCGUUCUCUCGUCAGUGAUGUUGGCG
B33 gave a dissociation constant Kd greater than 3000 nM.

B34: Eterna 7734762 (Same State - FMN B) (ssRNA)
RNA: UGUACCGAGUAAGGAUAUGUCGUCGAAAGACGAAAUGGAGUGAUGUUCCUUAAACUGCGAAAGCAGACAGAAGGUACUUGGUACU
B34 returned a Kd greater than 3000 nM.

B35: Eterna 5984275 (Exclusion 4) (ssRNA)
RNA: AUUGUGUGAGGAUAUUAGCAGUAGACGAAUGGAGUCGUGGCUGAGAAGGCACAUGAGGAUCACCCAUGUUCCUU
Take B35: binding was characterised by a dissociation constant (Kd) of 16.8 nM.

B36: Eterna 7739457 (Exclusion - Theophylline B) (ssRNA)
RNA: UUAUAUAUAUUAGAUACCAGUUUAAUGGAAACAAAUUAUGUUAUGAGUGAUGUUCAUGUAAGCCCUUGGCAGCUGGUAUGGGUUU
For B36, the Kd was greater than 3000 nM.

B37: Eterna 7653871 (Same State - Theophylline B) (ssRNA)
RNA: UGUAUGUGAUUUGAUACCAGACCAGCUGGUGGUGCAUGAGGAACACCCAUGCAGGUUUGGGUCCCUUGGCAGCAAAUCGCAUACU
Take B37: the affinity, expressed as Kd, was 145 nM.

B38: Eterna 7653873 (Same State - Theophylline B) (ssRNA)
RNA: UGUAUGUGAUUUGAUACCAGACCAGCUGGUGGUCCAUGAGGAACACCCAUGGAGGUUUGGGUCCCUUGGCAGCAAAUCGCAUACU
B38: the dissociation constant (Kd) stood at 83.2 nM.

B39: Eterna 5982897 (Exclusion 6) (ssRNA)
RNA: GCAUGCUCCGAGGAUAUCGAAGCUAAUUAUGCACGAGAAGGCGGAACAUGAGGAUCACCCAUGUGAUGCCUAAA
The molecule B39 registered a dissociation constant (Kd) of 14.4 nM.
